Results taken from US7923535B2, “Tryptophan as a functional replacement for ADP-ribose-arginine in recombinant proteins” (The United States of America as represented by the …, priority 2002, dated 2011).
Entries after “also recorded” stand apart in the source; their conditions may differ.

Legend:
[1] = Auto-ADP-ribosylation of PI-PLC released recombinant ART2 proteins with [^32P]NAD, SDS-PAGE; format: biochemical, rat; conditions: for auto-ADP-ribosylation: [^32P]NAD added to PI-PLC released protein, SDS-PAGE; for auto-ADP-ribosylation at multiple sites (decrease in mobility on SDS-PAGE): 10 μM [^32P]NAD, followed by 5 mM unlabeled NAD
Procedure: To investigate the structural basis for these differences in catalytic function, site-specific mutagenesis was employed with synthesis of recombinant ART2b and ART2a proteins in rat adenocarcinoma cells (NMU) under a dexamethasone-sensitive promoter. After induction and expression of the GPI-anchored proteins, cells were incubated with PI-PLC to cleave the GPI anchor and then [^32P]-NAD was added to the medium to promote auto-ADP-ribosylation of the released protein (FIG. 2).
To assess the ability of ART2 proteins, ART2a and ART2b, to be auto-ADP-ribosylated at multiple sites, proteins were incubated first with 10 μM [^32P]NAD, followed by addition of 5 mM unlabeled NAD and further incubation (FIG. 4). […] It is unlikely that auto-modification was due to non-enzymatic addition of [^32P]ADP-ribose since reactions were carried out in the presence of 1 mM ADP-ribose, or due to NAD binding, since the radiolabel was not displaced by incubation with 5 mM NAD.

[2] = NAD glycohydrolase (NADase) assay; format: biochemical, rat; conditions: for NADase activity: PI-PLC released recombinant protein from NMU cells, 0.1 mM [carbonyl-^14C]NAD, 1 hour at 30° C.; for NADase activity during the course of the reaction (rate of NAD hydrolysis): change over the course of the reaction
Procedure: (§1) NADase activity was measured in DPBS with 0.1 mM [carbonyl-^14C]NAD (8×10^4 cpm) for 1 hour at 30° C., (total volume=150,u). Samples (50,u) were applied to AG1-X2 (BIO-RAD, Hercules, Calif.) columns (0.4×4 cm), equilibrated and eluted with water for liquid scintillation counting as described (Moss et al., Proc Natl Acad Sci U S A 73(12):4424-7, 1976). Transferase activity was assayed similarly with or without 20 mM agmatine as ADP-ribose acceptor and with [adenine-^14C]NAD substituted for [carbonyl-^14C]NAD.

[3] = target: T1, ART2b(R204K) (Rattus norvegicus, UniProt P20974, R204K); assay: Incubation of wildtype ART2b with ART2b(R204K) and millimolar NAD (intermolecular modification); format: biochemical; conditions: millimolar NAD, with or without ART2b(R204K)
T1 construct: made in house; host or cells: rat mammary adenocarcinoma (NMU) cells, pMAMneo vector, dexamethasone-induced; released with PI-PLC
T1 sequence (P20974 21-246 R204K limits assumed): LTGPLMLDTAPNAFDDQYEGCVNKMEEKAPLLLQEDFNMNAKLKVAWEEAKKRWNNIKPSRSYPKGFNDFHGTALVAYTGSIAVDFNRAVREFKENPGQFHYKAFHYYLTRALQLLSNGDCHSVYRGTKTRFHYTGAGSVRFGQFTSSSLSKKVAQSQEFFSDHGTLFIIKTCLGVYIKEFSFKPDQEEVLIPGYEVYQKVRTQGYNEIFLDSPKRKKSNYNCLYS
Procedure: The blots contain samples from cells expressing wild type ART2b (lanes 1), ART2b(R204K) (lanes 2), or a mixtures of samples containing ART2b and ART2b(R204K) (lanes 3). Samples were incubated with or without 10 μM [^32P]NAD followed by either TCA precipitation or further incubation with 5 mM NAD. The radiolabeled wild type ART2b and ART2b(R204K) proteins were combined and then incubated with or without 5 mM NAD.
To investigate whether ART2b(R204K) could be modified, wildtype ART2b was incubated with its mutant ART2b(R204K) and millimolar NAD (FIG. 5).

[4] = ADP-ribosyltransferase assay with agmatine as ADP-ribose acceptor; format: biochemical, rat; conditions: 20 mM agmatine as ADP-ribose acceptor
Procedure: as §1

Molecule	auto-ADP-ribosylation [1]	NADase activity [2]	auto-ADP-ribosylation at multiple sites (decrease in mobility on SDS-PAGE) [1]	modification (mobility on SDS-PAGE) after incubation of wildtype ART2b with ART2b(R204K) and NAD [3]	NADase activity during the course of the reaction (rate of NAD hydrolysis) [2]	transfer of ADP-ribose to agmatine [4]
ART2a: rat ADP-ribosyltransferase ART2a (RT6.1), SEQ ID NO:11, wild type (protein, listed as Rattus norvegicus) MPSNICKFFLTWWLIQQVTGLTGPLMLDTAPNAFDDQYEGCVNKMEEKAPLLLKEDFNKSEKLKVAWEEAKKRWNNIKPSMSYPKGFNDFHGTALVAYTGSIGVDFNRAVREFKENPGQFHYKAFHYYLTRALQLLSNGDCHSVYRGTKTRFHYTGAGSVRFGQFTSSSLSKTVAQSPEFFSDDGTLFIIKTCLGVYIKEFSFYPDQEEVLIPGYEVYQKVRTQGYNEIFLDSPKRKKSNYNCLYSSAGTRESCVSLFLVVLTSLLVQLLCLAEP	not significantly auto-modified	have NADase activity	–	–	–	–
ART2b(R204K): rat ART2b with arginine-to-lysine substitution at position 204 (protein) LTGPLMLDTAPNAFDDQYEGCVNKMEEKAPLLLQEDFNMNAKLKVAWEEAKKRWNNIKPSRSYPKGFNDFHGTALVAYTGSIAVDFNRAVREFKENPGQFHYKAFHYYLTRALQLLSNGDCHSVYRGTKTRFHYTGAGSVRFGQFTSSSLSKKVAQSQEFFSDHGTLFIIKTCLGVYIKEFSFKPDQEEVLIPGYEVYQKVRTQGYNEIFLDSPKRKKSNYNCLYS	abolished both the primary and secondary modifications	–	not modified by incubation with NAD	not modified by wildtype ART2b in an intermolecular reaction	did not change	–
ART2a(Y204R): rat ART2a with tyrosine-to-arginine substitution at position 204 (protein) LTGPLMLDTAPNAFDDQYEGCVNKMEEKAPLLLKEDFNKSEKLKVAWEEAKKRWNNIKPSMSYPKGFNDFHGTALVAYTGSIGVDFNRAVREFKENPGQFHYKAFHYYLTRALQLLSNGDCHSVYRGTKTRFHYTGAGSVRFGQFTSSSLSKTVAQSPEFFSDDGTLFIIKTCLGVYIKEFSFRPDQEEVLIPGYEVYQKVRTQGYNEIFLDSPKRKKSNYNCLYS	auto-ADP-ribosylation of both glycosylated 33 kDa and nonglycosylated 29 kDa forms was observed	–	exhibited auto-ADP-ribosylation following incubation with 5 mM NAD	–	–	–
ART2a(M81R,Y204R): rat ART2a with M81R and Y204R substitutions (protein, UniProt P17982 21-246, looked up, variant M81R Y204R) T-cell …: LTGPLMLDTAPNAFDDQYEGCVNKMEEKAPLLLKEDFNKSEKLKVAWEEAKKRWNNIKPSRSYPKGFNDFHGTALVAYTGSIGVDFNRAVREFKENPGQFHYKAFHYYLTRALQLLSNGDCHSVYRGTKTRFHYTGAGSVRFGQFTSSSLSKTVAQSPEFFSDDGTLFIIKTCLGVYIKEFSFRPDQEEVLIPGYEVYQKVRTQGYNEIFLDSPKRKKSNYNCLYS	auto-ADP-ribosylation of both glycosylated 33 kDa and nonglycosylated 29 kDa forms was observed	–	exhibited auto-ADP-ribosylation following incubation with 5 mM NAD	–	–	–
ART2a(M81R): rat ART2a with methionine-to-arginine substitution at position 81 (protein) LTGPLMLDTAPNAFDDQYEGCVNKMEEKAPLLLKEDFNKSEKLKVAWEEAKKRWNNIKPSRSYPKGFNDFHGTALVAYTGSIGVDFNRAVREFKENPGQFHYKAFHYYLTRALQLLSNGDCHSVYRGTKTRFHYTGAGSVRFGQFTSSSLSKTVAQSPEFFSDDGTLFIIKTCLGVYIKEFSFYPDQEEVLIPGYEVYQKVRTQGYNEIFLDSPKRKKSNYNCLYS	had no effect	–	–	–	–	–
ART2a(59MNA61,Y204R): rat ART2a with K59M, S60N, E61A and Y204R substitutions, non-glycosylated (protein, UniProt P17982 21-246, looked up, variant K59M S60N E61A Y204R) T-cell …: LTGPLMLDTAPNAFDDQYEGCVNKMEEKAPLLLKEDFNMNAKLKVAWEEAKKRWNNIKPSMSYPKGFNDFHGTALVAYTGSIGVDFNRAVREFKENPGQFHYKAFHYYLTRALQLLSNGDCHSVYRGTKTRFHYTGAGSVRFGQFTSSSLSKTVAQSPEFFSDDGTLFIIKTCLGVYIKEFSFRPDQEEVLIPGYEVYQKVRTQGYNEIFLDSPKRKKSNYNCLYS	–	–	exhibited auto-ADP-ribosylation following incubation with 5 mM NAD	–	–	–
ART2b(R81K): rat ART2b with arginine-to-lysine substitution at position 81 (protein) LTGPLMLDTAPNAFDDQYEGCVNKMEEKAPLLLQEDFNMNAKLKVAWEEAKKRWNNIKPSKSYPKGFNDFHGTALVAYTGSIAVDFNRAVREFKENPGQFHYKAFHYYLTRALQLLSNGDCHSVYRGTKTRFHYTGAGSVRFGQFTSSSLSKKVAQSQEFFSDHGTLFIIKTCLGVYIKEFSFRPDQEEVLIPGYEVYQKVRTQGYNEIFLDSPKRKKSNYNCLYS	no effect on auto-ADP-ribosylation	–	exhibited auto-ADP-ribosylation following incubation with 5 mM NAD	–	–	–
ART2b(R204W): rat ART2b with arginine-to-tryptophan substitution at position 204 (protein, UniProt P20974 21-246, looked up, variant R204W) T-cell …: LTGPLMLDTAPNAFDDQYEGCVNKMEEKAPLLLQEDFNMNAKLKVAWEEAKKRWNNIKPSRSYPKGFNDFHGTALVAYTGSIAVDFNRAVREFKENPGQFHYKAFHYYLTRALQLLSNGDCHSVYRGTKTRFHYTGAGSVRFGQFTSSSLSKKVAQSQEFFSDHGTLFIIKTCLGVYIKEFSFWPDQEEVLIPGYEVYQKVRTQGYNEIFLDSPKRKKSNYNCLYS	auto-ADP-ribosylation at non-arginine sites	greater than that of wild-type ART2b	weak auto-ADP-ribosylation activity at multiple sites	–	decreased during the course of the reaction	unable to transfer ADP-ribose to agmatine
ART2b: rat ADP-ribosyltransferase ART2b (RT6.2), SEQ ID NO:12, wild type (protein, listed as Rattus norvegicus) MPSNICKFFLTWWLIQQVTGLTGPLMLDTAPNAFDDQYEGCVNKMEEKAPLLLQEDFNMNAKLKVAWEEAKKRWNNIKPSRSYPKGFNDFHGTALVAYTGSIAVDFNRAVREFKENPGQFHYKAFHYYLTRALQLLSNGDCHSVYRGTKTRFHYTGAGSVRFGQFTSSSLSKKVAQSQEFFSDHGTLFIIKTCLGVYIKEFSFRPDQEEVLIPGYEVYQKVRTQGYNEIFLDSPKRKKSNYNCLYSSAGARESCVSLFLVVLPSLLVQLLCLAEP	significantly auto-ADP-ribosylated; also recorded: Multiple species of auto-ADP-ribosylated	have NADase activity	exhibited auto-ADP-ribosylation following incubation with 5 mM NAD	exhibited decreasing mobility on SDS-PAGE	decreased during the course of the reaction	unable to transfer ADP-ribose to agmatine
